Target: T1, His6-Ddx21_(motif2) (human, UniProt Q9NR30 1-783, motif2 (aa440–444) -RTIIF- to -RTAIA-)
T1 construct: Site-directed mutagenesis of pRSET-A-DDX21; also called mut2; (aa440–444: motif2); source: E. coli DH5α, purified (SP-Sepharose, Ni-NTA)
T1 sequence (looked up): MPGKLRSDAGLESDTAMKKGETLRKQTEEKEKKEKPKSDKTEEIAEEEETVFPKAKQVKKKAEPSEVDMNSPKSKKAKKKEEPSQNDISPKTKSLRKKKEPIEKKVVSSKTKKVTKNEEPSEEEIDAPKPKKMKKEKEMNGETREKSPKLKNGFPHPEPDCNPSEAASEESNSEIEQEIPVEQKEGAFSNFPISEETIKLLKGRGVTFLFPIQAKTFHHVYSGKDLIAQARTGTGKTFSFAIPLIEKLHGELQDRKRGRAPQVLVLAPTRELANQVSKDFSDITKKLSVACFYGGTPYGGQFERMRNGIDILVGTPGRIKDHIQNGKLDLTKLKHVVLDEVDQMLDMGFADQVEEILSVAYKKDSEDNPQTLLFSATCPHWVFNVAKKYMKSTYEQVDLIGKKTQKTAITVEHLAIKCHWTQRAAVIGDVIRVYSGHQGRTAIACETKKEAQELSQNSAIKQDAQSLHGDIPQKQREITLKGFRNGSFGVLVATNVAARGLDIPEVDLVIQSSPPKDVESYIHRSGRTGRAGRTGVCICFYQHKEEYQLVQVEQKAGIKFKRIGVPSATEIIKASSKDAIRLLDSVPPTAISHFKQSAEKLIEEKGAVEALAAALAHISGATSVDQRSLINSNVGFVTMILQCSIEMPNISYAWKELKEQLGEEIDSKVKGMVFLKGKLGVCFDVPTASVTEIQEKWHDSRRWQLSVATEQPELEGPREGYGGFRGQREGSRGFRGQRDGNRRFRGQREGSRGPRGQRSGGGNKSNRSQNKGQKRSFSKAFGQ
Assay: pull-down; 300 ng PP1 and 200 ng His6-Ddx21 in 25 mM Tris pH 7.5, 5% glycerol, 150 mM NaCl, 0.5% Igepal630, 10 mM imidazole, 4°C; Ni-NTA beads; wash 450 mM NaCl, 0.5% Tween-20 (γ: 500 mM NaCl, 0.75% Tween-20); western blot
Settings: both partners purified

B1: PP1β, bacterially expressed and purified (enzyme, human, UniProt P62140 1-327, looked up)
chain: MADGELNVDSLITRLLEVRGCRPGKIVQMTEAEVRGLCIKSREIFLSQPILLELEAPLKICGDIHGQYTDLLRLFEYGGFPPEANYLFLGDYVDRGKQSLETICLLLAYKIKYPENFFLLRGNHECASINRIYGFYDECKRRFNIKLWKTFTDCFNCLPIAAIVDEKIFCCHGGLSPDLQSMEQIRRIMRPTDVPDTGLLCDLLWSDPDKDVQGWGENDRGVSFTFGADVVSKFLNRHDLDLICRAHQVVEDGYEFFAKRQLVTLFSAPNYCGEFDNAGGMMSVDETLMCSFQILKPSEKKAKYQYGGLNSGRPVTPPRTANPPKKR
notes: Protein phosphatase 1 catalytic subunit, isoform β, human; also called protein phosphatase 1 beta
  binding result: binds

— paper PMC3386289, “Isolation of Human Mitotic Protein Phosphatase Complexes: Identification of a Complex between Protein Phosphatase 1 and the RNA Helicase Ddx21” (PLoS ONE, 2012)
